Reference: US20110195900A1, “PEPTIDIC PTH RECEPTOR AGONISTS” (FERRING B.V., priority 2008, published 2011)
Read-outs that look alike come from different tables or passages of the source. Non-standard residues stand in square brackets, D forms with d. Residues, ends and D or L forms follow the SMILES beside them. No end group written: not given here. 1Nal = N[C@@H](Cc1cccc2ccccc12)C(=O)O; 2Nal = N[C@@H](Cc1ccc2ccccc2c1)C(=O)O; β3hI = CC[C@H](C)[C@H](N)CC(=O)O; β3hR = N=C(N)NCCC[C@H](N)CC(=O)O; Nle = CCCC[C@H](N)C(=O)O; β3hA = C[C@H](N)CC(=O)O; Aib = CC(C)(N)C(=O)O; βAla = NCCC(=O)O

T1: human PTH-1 receptor (Homo sapiens, UniProt Q03431)
T1 construct: expressed in transfected cells; host or cells: HEK-293
T1 sequence (Q03431 27-593): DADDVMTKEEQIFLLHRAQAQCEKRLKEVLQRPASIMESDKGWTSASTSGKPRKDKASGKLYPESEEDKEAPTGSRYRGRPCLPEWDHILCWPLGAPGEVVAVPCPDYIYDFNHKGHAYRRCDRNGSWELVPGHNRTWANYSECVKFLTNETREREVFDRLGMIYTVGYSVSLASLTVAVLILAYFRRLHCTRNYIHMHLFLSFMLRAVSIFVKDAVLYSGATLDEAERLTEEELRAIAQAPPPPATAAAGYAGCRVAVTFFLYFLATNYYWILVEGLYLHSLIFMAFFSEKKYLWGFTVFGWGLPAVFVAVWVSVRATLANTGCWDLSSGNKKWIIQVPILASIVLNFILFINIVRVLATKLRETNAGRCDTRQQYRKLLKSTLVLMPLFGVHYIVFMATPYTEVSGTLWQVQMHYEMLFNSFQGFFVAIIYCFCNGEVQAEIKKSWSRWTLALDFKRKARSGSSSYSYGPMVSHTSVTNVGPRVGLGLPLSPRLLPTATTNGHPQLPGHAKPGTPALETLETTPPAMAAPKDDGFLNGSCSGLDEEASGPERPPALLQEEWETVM

B1: [Nle^8,18, β-Ala^19, 1-Nal^23] hPTH (1-34)-NH2 (peptide)
peptide: SVSEIQL[Nle]HNLGKHLNS[Nle][βAla]RVE[1Nal]LRKKLQDVHNF-NH2
modifications: N-terminus assumed
SMILES: CCCC[C@H](NC(=O)[C@H](CO)NC(=O)[C@H](CC(N)=O)NC(=O)[C@H](CC(C)C)NC(=O)[C@H](Cc1c[nH]cn1)NC(=O)[C@H](CCCCN)NC(=O)CNC(=O)[C@H](CC(C)C)NC(=O)[C@H](CC(N)=O)NC(=O)[C@H](Cc1c[nH]cn1)NC(=O)[C@H](CCCC)NC(=O)[C@H](CC(C)C)NC(=O)[C@H](CCC(N)=O)NC(=O)[C@@H](NC(=O)[C@H](CCC(=O)O)NC(=O)[C@H](CO)NC(=O)[C@@H](NC(=O)[C@@H](N)CO)C(C)C)[C@@H](C)CC)C(=O)NCCC(=O)N[C@@H](CCCNC(=N)N)C(=O)N[C@H](C(=O)N[C@@H](CCC(=O)O)C(=O)N[C@@H](Cc1cccc2ccccc12)C(=O)N[C@@H](CC(C)C)C(=O)N[C@@H](CCCNC(=N)N)C(=O)N[C@@H](CCCCN)C(=O)N[C@@H](CCCCN)C(=O)N[C@@H](CC(C)C)C(=O)N[C@@H](CCC(N)=O)C(=O)N[C@@H](CC(=O)O)C(=O)N[C@H](C(=O)N[C@@H](Cc1c[nH]cn1)C(=O)N[C@@H](CC(N)=O)C(=O)N[C@@H](Cc1ccccc1)C(N)=O)C(C)C)C(C)C

How the values were obtained:
[1] = target: T1, human PTH-1 receptor; assay: Reporter gene assay (CRE-luciferase) for agonist activity in transiently transfected HEK-293 cells; assay type: cell-based
How it was run: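 Selectivity came from luciferase transcriptional reporter assays expressing human PTH-2 receptor. PTH-1 agonism used transiently transfected HEK-293 cells carrying SV40-promoter receptor and cAMP-responsive-element luciferase; 4-5 h compound exposure, lysis, luminescence, non-linear-regression EC50/efficacy; ≥3 independent runs, PTH (1-34) control each.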

[2] = target: human parathyroid hormone receptor 1 (human, UniProt Q03431); assay: cell-based or functional assay
[3] = target: human parathyroid hormone receptor 2 (human, UniProt P49190); assay: cell-based or functional assay
[4] = Table 4 comparison data, ratio of EC50 values

| Molecule | Selectivity hPTHR-2/hPTHR-1 [1, 4] | hPTHR-1 EC50 (nM), CRE-luciferase reporter gene assay [2] [nM] | hPTHR-2 EC50 (nM), luciferase reporter gene assay [3] [nM] | other results |
| --- | --- | --- | --- | --- |
| CCCC[C@H](NC(=O)[C@H](CC(C)C)NC(=O)[C@H](CCC(N)=O)NC(=O)[C@@H](NC(=O)[C@H](CCC(=O)O)NC(=O)[C@H](CO)NC(=O)[C@@H](NC(=O)C(C)(C)N)C(C)C)[C@@H](C)CC)C(=O)N[C@@H](Cc1c[nH]cn1)C(=O)N[C@@H](CCC(=O)O)C(=O)N[C@@H](CC(C)C)C(=O)NCC(=O)N[C@@H](CCCCN)C(=O)N[C@@H](Cc1c[nH]cn1)C(=O)N[C@@H](CC(C)C)C(=O)N[C@@H](CCCCN)C(=O)N[C@@H](CO)C(=O)N[C@H](CC(=O)N[C@@H](CCC(=O)O)C(=O)N[C@@H](CCCNC(=N)N)C(=O)N[C@H](C(=O)N[C@@H](CCC(=O)O)C(=O)N[C@@H](Cc1cccc2ccccc12)C(=O)N[C@@H](CC(C)C)C(=O)N[C@@H](CCCNC(=N)N)C(=O)N[C@@H](CCCCN)C(=O)N[C@@H](CC(C)C)C(=O)N[C@@H](CC(C)C)C(=O)N[C@@H](CCC(N)=O)C(=O)N[C@@H](CCC(=O)O)C(=O)N[C@H](C(=O)N[C@@H](Cc1c[nH]cn1)C(=O)N[C@@H](CCC(=O)O)C(=O)N[C@@H](CCCCN)C(N)=O)C(C)C)C(C)C)[C@@H](C)CC [SEQ ID NO: 50, [Aib^1, Nle^8, Glu^10, Lys^16, β-hIle^18,1-Nal^23, Leu^27, Glu^30, Glu^33, Lys^34] hPTH(1-34)-NH2] (H-[Aib]VSEIQL[Nle]HELGKHLKS[β3hI]ERVE[1Nal]LRKLLQEVHEK-NH2; N-terminus assumed) |  |  |  | EC50 [1]: 40 pM; hPTHR-2/hPTHR-1 ([1]; Table 3, ratio of EC50 values, selectivity for hPTH-1 receptor over hPTH-2 receptor): 22 |
| CCCC[C@H](NC(=O)[C@H](CC(C)C)NC(=O)[C@H](CCC(N)=O)NC(=O)[C@@H](NC(=O)[C@H](CCC(=O)O)NC(=O)[C@H](CO)NC(=O)[C@@H](NC(=O)[C@@H](N)CO)C(C)C)[C@@H](C)CC)C(=O)N[C@@H](Cc1c[nH]cn1)C(=O)N[C@@H](CC(N)=O)C(=O)N[C@@H](CC(C)C)C(=O)NCC(=O)N[C@@H](CCCCN)C(=O)N[C@@H](Cc1c[nH]cn1)C(=O)N[C@@H](CC(C)C)C(=O)N[C@@H](CC(N)=O)C(=O)N[C@@H](CO)C(=O)N[C@@H](C)CC(=O)N[C@@H](CCC(=O)O)C(=O)N[C@@H](CCCNC(=N)N)C(=O)N[C@H](C(=O)N[C@@H](CCC(=O)O)C(=O)N[C@@H](Cc1ccc2ccccc2c1)C(=O)N[C@@H](CC(C)C)C(=O)N[C@@H](CCCNC(=N)N)C(=O)N[C@@H](CCCCN)C(=O)N[C@@H](CCCCN)C(=O)N[C@@H](CC(C)C)C(=O)N[C@@H](CCC(N)=O)C(=O)N[C@@H](CC(=O)O)C(=O)N[C@H](C(=O)N[C@@H](Cc1c[nH]cn1)C(=O)N[C@@H](CC(N)=O)C(=O)N[C@@H](Cc1ccccc1)C(N)=O)C(C)C)C(C)C [SEQ ID NO: 52, [Nle^8, β-hAla^18,2-Nal^23] hPTH (1-34)-NH2] (H-SVSEIQL[Nle]HNLGKHLNS[β3hA]ERVE[2Nal]LRKKLQDVHNF-NH2) | 215 |  |  |  |
| CCCC[C@H](NC(=O)[C@H](CC(C)C)NC(=O)[C@H](CCC(N)=O)NC(=O)[C@@H](NC(=O)[C@H](CCC(=O)O)NC(=O)[C@H](CO)NC(=O)[C@@H](NC(=O)[C@@H](N)CO)C(C)C)[C@@H](C)CC)C(=O)N[C@@H](Cc1c[nH]cn1)C(=O)N[C@@H](CC(N)=O)C(=O)N[C@@H](CC(C)C)C(=O)NCC(=O)N[C@@H](CCCCN)C(=O)N[C@@H](Cc1c[nH]cn1)C(=O)N[C@@H](CC(C)C)C(=O)N[C@@H](CC(N)=O)C(=O)N[C@@H](CO)C(=O)N[C@H](CC(=O)N[C@@H](CCC(=O)O)C(=O)N[C@@H](CCCNC(=N)N)C(=O)N[C@H](C(=O)N[C@@H](CCC(=O)O)C(=O)N[C@@H](Cc1ccc2ccccc2c1)C(=O)N[C@@H](CC(C)C)C(=O)N[C@@H](CCCNC(=N)N)C(=O)N[C@@H](CCCCN)C(=O)N[C@@H](CCCCN)C(=O)N[C@@H](CC(C)C)C(=O)N[C@@H](CCC(N)=O)C(=O)N[C@@H](CC(=O)O)C(=O)N[C@H](C(=O)N[C@@H](Cc1c[nH]cn1)C(=O)N[C@@H](CC(N)=O)C(=O)N[C@@H](Cc1ccccc1)C(N)=O)C(C)C)C(C)C)[C@@H](C)CC [SEQ ID NO: 53, [Nle^8, β-hIle^18,2-Nal^23] hPTH (1-34)-NH2] (H-SVSEIQL[Nle]HNLGKHLNS[β3hI]ERVE[2Nal]LRKKLQDVHNF-NH2) | 170 |  |  | EC50 ([1]; Table 4 comparison data, HEK-293 cells, CRE-luciferase, read-out: hPTHR-1 EC50): 250 pM |
| CCCC[C@H](NC(=O)[C@H](CC(C)C)NC(=O)[C@H](CCC(N)=O)NC(=O)[C@@H](NC(=O)[C@H](CCC(=O)O)NC(=O)[C@H](CO)NC(=O)[C@@H](NC(=O)[C@@H](N)CO)C(C)C)[C@@H](C)CC)C(=O)N[C@@H](Cc1c[nH]cn1)C(=O)N[C@@H](CC(N)=O)C(=O)N[C@@H](CC(C)C)C(=O)NCC(=O)N[C@@H](CCCCN)C(=O)N[C@@H](Cc1c[nH]cn1)C(=O)N[C@@H](CC(C)C)C(=O)N[C@@H](CC(N)=O)C(=O)N[C@@H](CO)C(=O)N[C@@H](CCCNC(=N)N)CC(=O)N[C@@H](CCC(=O)O)C(=O)N[C@@H](CCCNC(=N)N)C(=O)N[C@H](C(=O)N[C@@H](CCC(=O)O)C(=O)N[C@@H](Cc1ccc2ccccc2c1)C(=O)N[C@@H](CC(C)C)C(=O)N[C@@H](CCCNC(=N)N)C(=O)N[C@@H](CCCCN)C(=O)N[C@@H](CCCCN)C(=O)N[C@@H](CC(C)C)C(=O)N[C@@H](CCC(N)=O)C(=O)N[C@@H](CC(=O)O)C(=O)N[C@H](C(=O)N[C@@H](Cc1c[nH]cn1)C(=O)N[C@@H](CC(N)=O)C(=O)N[C@@H](Cc1ccccc1)C(N)=O)C(C)C)C(C)C [SEQ ID NO: 54, [Nle^8, β-hArg^18,2-Nal^23] hPTH (1-34)-NH2] (H-SVSEIQL[Nle]HNLGKHLNS[β3hR]ERVE[2Nal]LRKKLQDVHNF-NH2) | 147 |  |  |  |
| [Aib]VSEIQL[Nle]HSLGKHLK[βAla][Nle]ERVE[1Nal]LRKLLQRVHEE-NH2 |  | 0.03 | 7 |  |
| [Aib]VSEIQL[Nle]HNLGKHLNS[β3hI]ERVE[1Nal]LRKLLQDV-NH2 [[Aib^1, Nle^8, β-hIle^18, 1-Nal^23, Leu^27] hPTH (1-31)-NH2] |  | 0.05 | 18 |  |
| SVSEIQL[Nle]HNLGKHLNS[β3hI]ERVE[1Nal]LRKLLQDV-NH2 [[Nle^8, β-hIle^18, 1-Nal^23, Leu^27] hPTH-(1-31)-NH2] |  | 0.09 | 32 |  |
| B1 |  | 0.21 | 11 |  |
| [Aib]VSEIQL[Nle]HELGKHLKS[β3hI]ERVE[1Nal]LRKLLQEVHEK-NH2 [[Aib^1, Nle^8, Glu^10, Lys^16, β-hIle^18, 1-Nal^23, Leu^27, Glu^30, Glu^33, Lys^34] hPTH(1-34)-NH2] |  | 0.04 | 1 |  |
